{"source": "patent US20250189530A1", "about": "(STCUBE, published 2025)", "key": {"[1]": {"target": "TRIM variant expressed by HEK293T cells", "assay": "western blot, STC43H11-1 band over Flag band"}, "[2]": {"target": "peptide 4 variant G365A expressed by HEK293T cells (human)", "assay": "western blot, STC43H11-1 band over Flag band"}, "[3]": {"target": "peptide 4 variant T368A expressed by HEK293T cells (human)", "assay": "western blot, STC43H11-1 band over Flag band"}, "[4]": {"target": "peptide 4 variant A371G expressed by HEK293T cells (human)", "assay": "western blot, STC43H11-1 band over Flag band"}, "[5]": {"target": "peptide 4 variant I372A expressed by HEK293T cells (human)", "assay": "western blot, STC43H11-1 band over Flag band"}, "[6]": {"target": "peptide 4 variant E363A expressed by HEK293T cells (human)", "assay": "western blot, STC43H11-1 band over Flag band"}, "[7]": {"target": "peptide 4 variant V374A expressed by HEK293T cells (human)", "assay": "western blot, STC43H11-1 band over Flag band"}, "[8]": {"target": "peptide 4 variant R367A expressed by HEK293T cells (human)", "assay": "western blot, STC43H11-1 band over Flag band"}, "[9]": {"target": "peptide 4 variant D366A expressed by HEK293T cells (human)", "assay": "western blot, STC43H11-1 band over Flag band"}, "[10]": {"target": "peptide 4 WT expressed by HEK293T cells (human)", "assay": "western blot, STC43H11-1 band over Flag band"}, "[11]": {"target": "peptide 4 variant V364A expressed by HEK293T cells (human)", "assay": "western blot, STC43H11-1 band over Flag band"}, "[12]": {"target": "peptide 4 variant G373A expressed by HEK293T cells (human)", "assay": "western blot, STC43H11-1 band over Flag band"}, "[13]": {"target": "peptide 4 variant W370A expressed by HEK293T cells (human)", "assay": "western blot, STC43H11-1 band over Flag band"}, "[14]": {"target": "peptide 4 variant E361A expressed by HEK293T cells (human)", "assay": "western blot, STC43H11-1 band over Flag band"}, "[15]": {"target": "peptide 4 variant C375A expressed by HEK293T cells (human)", "assay": "western blot, STC43H11-1 band over Flag band"}, "[16]": {"target": "peptide 4 variant D369A expressed by HEK293T cells (human)", "assay": "western blot, STC43H11-1 band over Flag band"}, "[17]": {"target": "peptide 4 variant V362A expressed by HEK293T cells (human)", "assay": "western blot, STC43H11-1 band over Flag band"}, "mouse BTN1A1": {"target": "T1, mouse BTN1A1 (mouse, UniProt Q62556 27-524, limits assumed)", "T1 construct": "also called mBTN1A1", "T1 sequence (looked up)": "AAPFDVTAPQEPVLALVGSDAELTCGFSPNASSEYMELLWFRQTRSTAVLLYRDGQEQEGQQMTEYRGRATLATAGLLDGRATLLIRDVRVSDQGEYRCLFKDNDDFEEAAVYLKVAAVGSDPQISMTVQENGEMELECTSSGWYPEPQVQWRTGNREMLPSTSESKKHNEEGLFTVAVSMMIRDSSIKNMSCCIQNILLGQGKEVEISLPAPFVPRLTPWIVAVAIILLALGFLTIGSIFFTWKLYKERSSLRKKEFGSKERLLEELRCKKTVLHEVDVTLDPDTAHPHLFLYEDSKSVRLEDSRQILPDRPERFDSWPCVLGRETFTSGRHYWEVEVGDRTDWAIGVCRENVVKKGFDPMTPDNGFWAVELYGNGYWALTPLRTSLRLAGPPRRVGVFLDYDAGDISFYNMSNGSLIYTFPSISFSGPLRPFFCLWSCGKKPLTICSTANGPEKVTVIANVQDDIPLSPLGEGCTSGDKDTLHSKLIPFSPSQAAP", "assay": "immunohistochemistry, 2 ug/mL", "from_the_text": "[…]"}, "[18]": {"target": "TRIM variant expressed by HEK293T cells", "assay": "western blot, HEK293T lysate, antibody 1 ug/ml"}, "[19]": {"target": "peptide 4 variant G365A expressed by HEK293T cells (human)", "assay": "western blot, HEK293T lysate, antibody 1 ug/ml"}, "[20]": {"target": "peptide 4 variant I372A expressed by HEK293T cells (human)", "assay": "western blot, HEK293T lysate, antibody 1 ug/ml"}, "[21]": {"target": "peptide 4 variant V374A expressed by HEK293T cells (human)", "assay": "western blot, HEK293T lysate, antibody 1 ug/ml"}, "[22]": {"target": "peptide 4 variant R367A expressed by HEK293T cells (human)", "assay": "western blot, HEK293T lysate, antibody 1 ug/ml"}, "[23]": {"target": "peptide 4 variant D366A expressed by HEK293T cells (human)", "assay": "western blot, HEK293T lysate, antibody 1 ug/ml"}, "[24]": {"target": "peptide 4 variant V362A expressed by HEK293T cells (human)", "assay": "western blot, HEK293T lysate, antibody 1 ug/ml"}}}
{"binder": "STC43H11-1 (antibody, V domains shown, From immunized New Zealand rabbits; IgG heavy chain and Kappa light chain; also called clone #43H11; Clone 43H11) VH: QSLEESGGRLVTPGGSLTLTCTVSGIDLSSYAMGWVRQAPGEGLEWIGSIGTGGGTGYASWAKGRFTISKTSTTVDLKMTSLTASDTATYFCATSNLWGPGTLVTVSS VL: QVLTQTASPVSAAVGGTVTINCQASQSVYNNNRCSWFQQKPGQPPKRLIYHTSTLDSGVPSRFKGSGSGTQFTLTISDVQCDDAATYYCLGNYDCSRADCAAFGGGTEVVVK", "values": [{"measurement": "Normalized Fold", "setting": "[1]", "value": -0.00102}, {"measurement": "Normalized Fold", "setting": "[2]", "value": 0.414}, {"measurement": "Normalized Fold", "setting": "[3]", "value": 0.0496}, {"measurement": "Normalized Fold", "setting": "[4]", "value": 0.045}, {"measurement": "Normalized Fold", "setting": "[5]", "value": 0.000608}, {"measurement": "Normalized Fold", "setting": "[6]", "value": 0.323}, {"measurement": "Normalized Fold", "setting": "[7]", "value": 0.237}, {"measurement": "Normalized Fold", "setting": "[8]", "value": 0.239}, {"measurement": "Normalized Fold", "setting": "[9]", "value": -0.0409}, {"measurement": "Normalized Fold", "setting": "[10]", "value": 0.478}, {"measurement": "Normalized Fold", "setting": "[11]", "value": 0.128}, {"measurement": "Normalized Fold", "setting": "[12]", "value": 0.0107}, {"measurement": "Normalized Fold", "setting": "[13]", "value": 0.0394}, {"measurement": "Normalized Fold", "setting": "[14]", "value": 0.231}, {"measurement": "Normalized Fold", "setting": "[15]", "value": 1.32}, {"measurement": "Normalized Fold", "setting": "[16]", "value": 0.000853}, {"measurement": "Normalized Fold", "setting": "[17]", "value": 1.18}, {"measurement": "binding result", "setting": "mouse BTN1A1", "value": "binds"}, {"measurement": "STC43H11-1 Adj. Vol. (Int)", "setting": "[18]", "value": -7610}, {"measurement": "STC43H11-1 Adj. Vol. (Int)", "setting": "[19]", "value": "2.26e+06"}, {"measurement": "STC43H11-1 Adj. Vol. (Int)", "setting": "[20]", "value": 4010}, {"measurement": "STC43H11-1 Adj. Vol. (Int)", "setting": "[21]", "value": 672000}, {"measurement": "STC43H11-1 Adj. Vol. (Int)", "setting": "[22]", "value": "1.48e+06"}, {"measurement": "STC43H11-1 Adj. Vol. (Int)", "setting": "[23]", "value": -228000}, {"measurement": "STC43H11-1 Adj. Vol. (Int)", "setting": "[24]", "value": "7.03e+06"}]}
